Experimental data from US20220298257A1 (ELPIS BIOPHARMACEUTICALS, published 2022).

T1: full-length human CD22 fused with flag and Myc tags at the C-terminus, on HEK293 or K562 cells (human, UniProt P20273 20-847)
T1 construct: whole, on cells; also called CD22/K562; CD22/HEK293; not shown: C-terminal flag and Myc tags of the pCMV6-Entry vector
T1 sequence (looked up): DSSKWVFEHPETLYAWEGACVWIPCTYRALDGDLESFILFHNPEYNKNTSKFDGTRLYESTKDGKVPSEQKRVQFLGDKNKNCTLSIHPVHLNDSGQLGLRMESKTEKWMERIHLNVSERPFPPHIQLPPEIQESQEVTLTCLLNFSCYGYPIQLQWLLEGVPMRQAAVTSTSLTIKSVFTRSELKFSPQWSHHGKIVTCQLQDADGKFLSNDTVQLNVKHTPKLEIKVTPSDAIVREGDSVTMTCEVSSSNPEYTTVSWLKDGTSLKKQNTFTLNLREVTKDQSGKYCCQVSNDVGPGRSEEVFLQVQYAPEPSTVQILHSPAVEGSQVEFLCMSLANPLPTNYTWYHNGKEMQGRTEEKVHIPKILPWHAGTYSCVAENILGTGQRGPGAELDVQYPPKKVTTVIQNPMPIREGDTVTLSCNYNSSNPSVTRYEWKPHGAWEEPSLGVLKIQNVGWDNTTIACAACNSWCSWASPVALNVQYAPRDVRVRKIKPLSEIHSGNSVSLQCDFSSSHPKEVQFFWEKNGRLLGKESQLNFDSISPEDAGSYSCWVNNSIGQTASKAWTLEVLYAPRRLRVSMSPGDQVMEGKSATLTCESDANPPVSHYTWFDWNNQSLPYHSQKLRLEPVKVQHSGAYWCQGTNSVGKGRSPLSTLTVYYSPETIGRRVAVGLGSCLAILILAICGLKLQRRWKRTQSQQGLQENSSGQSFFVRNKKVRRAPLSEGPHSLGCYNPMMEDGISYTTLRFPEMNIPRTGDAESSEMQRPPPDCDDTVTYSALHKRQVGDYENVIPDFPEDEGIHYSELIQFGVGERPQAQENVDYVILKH

T2: human CD22-Fc fusion protein (human, UniProt P20273 20-687, limits assumed)
T2 construct: also called recombinant CD22-Fc fusion protein; not shown: Fc part
T2 sequence (looked up): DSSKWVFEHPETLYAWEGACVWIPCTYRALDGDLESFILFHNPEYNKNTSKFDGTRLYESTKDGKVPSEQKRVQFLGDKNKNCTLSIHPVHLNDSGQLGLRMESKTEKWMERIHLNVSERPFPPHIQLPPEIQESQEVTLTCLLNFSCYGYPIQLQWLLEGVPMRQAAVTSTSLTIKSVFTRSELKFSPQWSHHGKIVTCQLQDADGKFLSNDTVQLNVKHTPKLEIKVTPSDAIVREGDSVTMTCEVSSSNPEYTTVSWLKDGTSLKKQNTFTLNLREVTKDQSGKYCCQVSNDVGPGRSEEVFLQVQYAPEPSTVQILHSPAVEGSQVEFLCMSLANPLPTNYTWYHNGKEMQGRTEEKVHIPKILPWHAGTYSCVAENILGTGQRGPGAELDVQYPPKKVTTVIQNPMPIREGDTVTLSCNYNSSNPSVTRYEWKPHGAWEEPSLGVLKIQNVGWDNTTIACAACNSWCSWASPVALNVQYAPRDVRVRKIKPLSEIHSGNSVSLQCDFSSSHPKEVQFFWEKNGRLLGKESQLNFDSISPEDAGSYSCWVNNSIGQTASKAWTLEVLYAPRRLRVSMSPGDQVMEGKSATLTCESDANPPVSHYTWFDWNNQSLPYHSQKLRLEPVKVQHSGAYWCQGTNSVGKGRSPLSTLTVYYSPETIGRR

B1: EP35-D6 scFv (scFv)
scFv: QVQLVQSGTEVKKPGASVKVSCKASGYTFTNNAITWVRQAPGQGLEWMGYISTSSDNINYAQKFRGRLTLTTDTSTGTAYMELSSLRSDDTATYYCARDGIFGGRDDPWGQGTLVTVSSGGGGSGGGGSGGGGSDIVMTQSPSSLSASVGDRVTITCQASQDISNYLNWYQQKPGKAPKLLIYDASNLETGVPSRFSGSGSETDFTITISSLQPEDIATYYCQQYDNLPLTFGGGTKVR
notes: VH-VL orientation; not shown: C-terminal flag and 6xHIS tag
B2: EP35-A7 scFv (scFv)
scFv: EVQLVESRGGVVQPGGSLRLSCAASGFTFSSYGMHWVRQAPGKGLEWVAFIRYDGSNKYYADSVKGRFTISRDNSKNTLYLQMNSLRAEDTAVYYCAKETVTTNYYYYMDVWGKGTTVTVSSGGGGSGGGGSGGGGSDVVMTQSPLSLPVTLGQPASISCRSSRSLEYNDGNTYLNWFHQRPGQSPRRLIYKVSNRDSGVPDRFSGSGSDTDFTLKISRVEAEDVGIYYCMQGTHWPLTFGQGTRLEIK
notes: as for B1
B3: EP35-E6 scFv (scFv)
scFv: QVQLVESGGALVQPGGSLRLSCVVSGFPFSTAWMNWVRQAPGKGLEWVARIKSEAHGGTTHYAPPVQGRFTISRDDSKNTVSLQMNSLKTEDTGVYYCGDFQWGQGTLVTVSSGGGGSGGGGSGGGGSVIWMTQSPSSLSASVGDRITITCQASQDISNFLNWYQQKPGEAPKLLLYDASNLERGVPSRFSGGGSGTDFTLTISSLQPEDIATYFCQQYDNLPLTFGGGTKVEIK
notes: as for B1
B4: EP35-B05 scFv (scFv)
scFv: QVQLVQSGAEVKKPGASVKVSCKASGYTFTSYGISWVRQAPGQGLEWMGWISAYNGNTNYAQKLQGRVTMTTDTSTSTAYMELRSLRSDDTAVYYCARDSGNSPIDYWGQGTLVTVSSGGGGSGGGGSGGGGSEIVMTQSPATLSVSPGEGVTLSCRASQSVSSNLAWYQQRPGQAPRLLIYGASIKATDVPDRFSGGGSGTDFTLSISNLQSEDFAVYYCQQYHTWPPVTFGGGTKVEIK
notes: VH-VL orientation; also called EP35-B5; not shown: C-terminal flag and 6xHIS tag
B5: EP160-C07 scFv (scFv)
scFv: QMQLVQSGAEVKKPGASVKVSCKASGYTFTSYGISWVRQAPGQGLEWMGWISAYNGNTNYAQKLQGRVTMTTDTSTSTAYMELRSLRSDDTAVYYCARDAVAGSRGYWGQGTLVTVSSGGGGSGGGGSGGGGSEIVLTQSPATLSVSPGEGVTLSCRASQSVSSNLAWYQQRPGQAPRLLIYGASIKATDVPDRFSGGGSGTDFTLSISNLQSEDFAVYYCQQYHTWPPVTFGEGTKVEIK
notes: VH-VL orientation; also called EP160-007; not shown: C-terminal flag and 6xHIS tag
B6: EP35-C8 scFv (scFv)
scFv: QVQLVQSGAEVKKPGASVKVSCKASGYTFTSYGISWVRQAPGQGLEWMGWISAYNGNTNYAQKLQGRVTMTTDTSTSTAYMELRSLGSDDTAVYYCARDSGSSDLDYWGQGTLVTVSSGGGGSGGGGSGGGGSEIVMTQSPATLSVSPGEGVTLSCRASQSVSSNLAWYQQKPGQAPRLLMYGASIKATDVPDRFSGGGSGTDFTLSISSLQSEDFAVYYCQQYHTWPPVTFGGGTKVEIK
notes: VH-VL orientation; also called EP35-C08; not shown: C-terminal flag and 6xHIS tag
B7: EP35-F7 scFv (scFv)
scFv: EVQLVQSGGGVVQPGRSLRLSCAASGFTFSSYGMHWVRQAPGKGLEWVAVIWYDGSNKYYADSVKGRFTISRDNSKNTLYLQMNSLRAEDTAVYYCARDGWKGFDYWGQGTTVTVSSGGGGSGGGGSGGGGSEIVLTQSPATLSVSPGEGVTLSCRASQSVSSNLAWYQQRPGQAPRLLIYGASIKATDVPDRFSGGGSGTDFTLSISNLQSEDFAVYYCQQYHTWPPVTFGGGTKVEIK
notes: also called EP35-F07; not shown: C-terminal flag and 6xHIS tag
B8: EP97-A01 scFv (scFv)
scFv: EVQLVQSGGGVVQPGRSLKLSCAASGFTFSSYGMHWVRQAPGKGLEWVAVIWYDGSNKYYADSVKGRFTISRDNSKNTLYLQMNSLRAEDTAVYYCARDGWKGFDYWGQGTTVTVSSGGGGSGGGGSGGGGSEIVLTQSPATLSVSPGEGVTLSCRASQSVSSNLAWYQQRPGQAPRLLIYGASIKATDVPDRFSGGGSGTDFTLSISNLQSEDFAVYYCQQYHTWPPVTFGGGTKVEIK
notes: as for B1

target: T1, full-length human CD22 fused with flag …; test: FACS, scFv titrated on CD22-expressing cells, anti-His Alexa 488
Procedure: The diluted samples were incubated with CD22-expressing HEK293 cells (CD22/HEK293 cells) in 96 wells plate on ice for 1 hour. Cells were spun down at 1200 rpm for 5 minutes at 4° C. to remove unbound antibodies. Cells were then washed once with 200 μL of full medium per well. […] Samples were then spun down at 1200 rpm for 5 minutes at 4° C. and washed twice with 200 uL of 1×PBS per well. The resultant samples were reconstituted in 200 uL of 1×PBS and read on Guava EasyCyte.

In order of falling EC50:
1. B4  77 nM
2. B1  47 nM
3. B3  14.2 nM
4. B2  10.4 nM
5. B5  5.2 nM
6. B6  4.6 nM

target: T2, human CD22-Fc fusion protein; test: SPR Biacore T200; CD22-Fc captured on Protein G chip, scFv as analyte;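 also: run in 1×HBST buffer, with the response of reference flow cell 1 subtracted from the CD22 capture cell and kinetics fitted in Biacore T200 evaluation software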
Procedure: The assay was run with Biacore T200 control software version 2.0. For each cycle, 1 μg/mL of human CD22-Fc fusion protein was captured for 60 seconds at flow rate of 10 ul/min on flow cell 2 in 1×HBST buffer on Protein G sensor chip. […] The flow cells were then regenerated with Glycine pH 2 for 60 seconds at flow rate of 30 ul/mins. […] The kinetics of scFvs binding to CD22 protein was analyzed with Biacore T200 evaluation software 3000. The specific binding response unit was derived from subtraction of binding to reference flow cell 1 from CD22 captured flow cell 2.

In order of falling Kd:
1. B8  14.2 nM
2. B7  11.3 nM

In order of rising koff:
1. B7  0.00098 s⁻¹
2. B8  0.00101 s⁻¹

In order of falling kon:
1. B7  86900 M⁻¹ s⁻¹
2. B8  71300 M⁻¹ s⁻¹
